Laboratory results from patent US20230235080A1, “TROPHOBLAST CELL-SURFACE ANTIGEN-2 (TROP-2) ANTIBODIES” (Bionecure Therapeutics, Inc., priority 2020, published 2023).
Where two headings read alike, the source gives them in different places. Each block holds one binder with its values, some of them ahead of it.

Tests used:
human EPCAM-His = target: T1, human EPCAM-His (human, UniProt P16422 24-265); assay: ELISA on coated antigen, one antibody dilution (concentration not given); on the sheet OD405, detected by GAM/H-AP
T1 construct: also called hEPCAM
T1 sequence (looked up): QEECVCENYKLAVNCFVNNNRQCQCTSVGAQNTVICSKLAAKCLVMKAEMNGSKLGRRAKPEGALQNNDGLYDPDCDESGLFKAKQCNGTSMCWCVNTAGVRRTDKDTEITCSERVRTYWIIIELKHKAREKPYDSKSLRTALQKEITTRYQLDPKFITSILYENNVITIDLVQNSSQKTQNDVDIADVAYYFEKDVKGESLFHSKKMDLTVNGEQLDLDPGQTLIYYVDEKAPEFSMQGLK

mouse Trop-2-His = target: T2, mouse Trop-2-His (mouse, UniProt Q8BGV3 25-270); assay: as above
T2 sequence (looked up): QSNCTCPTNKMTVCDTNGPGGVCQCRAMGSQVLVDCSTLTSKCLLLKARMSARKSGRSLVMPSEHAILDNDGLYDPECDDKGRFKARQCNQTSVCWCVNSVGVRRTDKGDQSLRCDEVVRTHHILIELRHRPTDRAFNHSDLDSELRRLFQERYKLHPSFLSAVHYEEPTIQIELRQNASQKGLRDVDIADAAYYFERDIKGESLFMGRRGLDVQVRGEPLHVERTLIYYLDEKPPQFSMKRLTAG

[1] = target: T3, human Trop-2-ECD-6His fusion protein (human, UniProt P09758 27-274); assay: antigen binding ELISA on immobilized human Trop-2-ECD-6His
T3 construct: Expressed in a human 293 cell line; also called huTrop-2; human Trop-2 antigen
T3 sequence: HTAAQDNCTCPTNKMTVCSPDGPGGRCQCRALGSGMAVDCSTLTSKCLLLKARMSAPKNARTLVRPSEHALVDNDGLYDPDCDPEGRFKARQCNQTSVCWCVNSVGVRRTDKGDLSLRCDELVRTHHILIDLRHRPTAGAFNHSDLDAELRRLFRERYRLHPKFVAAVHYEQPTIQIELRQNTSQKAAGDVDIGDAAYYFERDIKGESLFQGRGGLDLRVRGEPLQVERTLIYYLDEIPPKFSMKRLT

[2] = target: T4, human Trop-2 on Trop-2 positive cancer cells (human, UniProt P09758 27-323); assay: flow cytometry on MDA-MB-468 cells, MFI at 4 °C against the antibody concentration (about 400 to 10000 ng/ml); Kd (µg/ml) printed beside the legend
T4 construct: Endogenous Trop-2 of human tumour cell lines
T4 sequence (looked up): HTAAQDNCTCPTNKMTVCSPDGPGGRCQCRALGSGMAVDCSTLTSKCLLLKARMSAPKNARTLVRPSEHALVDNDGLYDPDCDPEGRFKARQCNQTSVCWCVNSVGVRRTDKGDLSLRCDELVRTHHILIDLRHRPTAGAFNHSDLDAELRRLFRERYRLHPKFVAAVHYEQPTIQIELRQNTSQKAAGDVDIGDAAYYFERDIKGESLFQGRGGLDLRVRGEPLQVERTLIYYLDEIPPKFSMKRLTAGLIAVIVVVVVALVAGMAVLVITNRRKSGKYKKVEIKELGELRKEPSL
Experimental: Internalizationi and degradation of anti-Trop-2 antibodies was measured by flow cytometry. In this study, fluorescent-conjugated secondary antibodies were used to detect the primary antibodies left on after internalization.
Next, either hRS7, or A1X4, or A1,2X4 antibody was added to cells in FACS buffer at concentrations of 400, 1000, 3000, or 10000 ng/ml, respectively, and incubated for 30 minutes at 4° C. After incubation, the cells were washed three times with FACS buffer to removed unbound antibody. The cells were then incubated at 37° C. with 5% CO₂ for antibody internalization. After 2 hours, the cells were dissociated with Trypsin and stained with fluorescent-conjugated goat anti-human IgG secondary antibodies for 30 minutes on ice in dark before being analyzed using Beckman flow cytometry system. The fluorescent intensity and cell binding percentage at each time point were analyzed by Beckman flow cytometric software. The amount of anti-Trop-2 antibodies internalized into cells at each concentration was determined using the following formula: % internalization rate = 100 × (MFI₄°C- MFI₃₇°C) / MFI₄°C

[3] = target: T4, human Trop-2 on Trop-2 positive cancer …; assay: cell-based or functional assay
[4] = target: T3, human Trop-2-ECD-6His fusion protein; assay: antigen binding ELISA on immobilized human Trop-2-ECD-6His; remark: listed apart in the source
[5] = target: T4, human Trop-2 on Trop-2 positive cancer …; assay: cell-based or functional assay; remark: listed apart in the source
[6] = target: T3, human Trop-2-ECD-6His fusion protein; assay: BLI (Octet), antibody at 8 ug/ml, human Trop-2ECD-6His at 3.125-50 nM
Experimental: The binding affinity of the purified anti-Trop-2 IgGs to human Trop-2 protein were determined by Octet system based on Bio-Layer Interferometry (BLI) technique. BLI is a layer of molecules attached to the tip of an optic fiber which creates an interference pattern at the detector, any change in the number of molecules bound causes a measured shift in the pattern. Octet system enables real-time analysis for determination of affinity and kinetics from biomolecular interactions in 96-well microplates. […] A1X4 or A1,2X4 antibody was diluted and added to the assigned wells at a final concentration 8 µg/ml. The plate was put in the Octet system and assay was started. The data was analyzed using the Octet Data Acquisition Software (fortebio data analysis 10.0) to calculate an association rate constant Kon, a dissociation rate constant Koff, and a dissociation constant Kd (Kd = Koff/Kon).

binding result (human EPCAM-His): no binding
binding result (mouse Trop-2-His): no binding
B1: murine-human chimeric IgG1 #125-1-5 (antibody, V domains shown)
VH: QIQLVQSGPELVKPGASVKMSCKASGYTFTTYVIHWVKQKPGQGLEWIGYINPNNDGTKYNEKFKGKATLISDKSSTTAYMEVRGLTSEDSAVYYCARPHFETHAMDYWGQGTSVTVSS
VL: DIQMTQSPSSFSVSLGDSVTITCKASEDIFNRLAWYQQKPGNAPRLLISGATSLETGVPSRFSGGGSGKEYTLSITSLQNEDVATYYCQQYWNTWTFGGGTKLEIKR
notes: Chimeric IgG1 expressed in HEK293-6E cells

EC50 [1]: 0.062 nM
Kd [2]: 0.78 µg/mL
Internalization rate (flow cytometry, MDA-MB-468 cells) [3]: 10.9%
EC50 [4]: 0.09 nM
Internalization rate (flow cytometry, MDA-MB-468 cells) [5]: 23.9%
Kd [6]: 0.78 nM
koff [6]: 0.000244 s⁻¹
B2: benchmark antibody hRS7 (antibody, V domains shown)
VH: QVQLQQSGSELKKPGASVKVSCKASGYTFTNYGMNWVKQAPGQGLKWMGWINTYTGEPTYTDDFKGRFAFSLDTSVSTAYLQISSLKADDTAVYFCARGGFGSSYWYFDVWGQGSLVTVSS
VL: DIQLTQSPSSLSASVGDRVSITCKASQDVSIAVAWYQQKPGKAPKLLIYSASYRYTGVPDRFSGSGSGTDFTLTISSLQPEDFAVYYCQQHYITPLTFGAGTKVDIK

binding result (human EPCAM-His): no binding
binding result (mouse Trop-2-His): no binding
B3: murine-human chimeric IgG1 #118-2-5 (antibody, V domains shown)
VH: QVQLKQSGPGLVAPSQSLSITCTVSGFSLTSYGVNWIRQPPGKGLEWLGVMWAGGSTNYNSALMSRLSISKDNSKSQVFLKMNSLQTDDTGMYYCARDENWDGAWFAYWGQGTLVTVSA
VL: DIQMTQSPSSLAVSAGEKVTMSCKSSQSLLNSGTRKNYLAWYQQKPGQSPKLLISWASSRESGVPDRFTGSGSGTDFTLTISSVQAEDLAVYYCKQSYNLFTFGGGTKLELKR
notes: as for B1
